# According to PMC5662472 (Chemical communications (Cambridge, England), 2017):
# Experiments:
# [1] = system: C[C@@H]1O[C@H](OP(=O)(O)OP(=O)(O)OC[C@H]2O[C@@H](n3cnc4c(=O)[nH]c(N)nc43)[C@H](O)[C@@H]2O)[C@@H](O)[C@H](O)[C@@H]1O; experiment: purified protein; conditions: donor; co-substrate LacNAcβPro2AA (best acceptor)
# [2] = biological target: Helicobacter pylori α1–3/4-fucosyltransferase (Hp3/4FT) (Helicobacter pylori, UniProt Q9L8S4); experiment: HPLC fucosyltransferase assay; conditions: acceptor; co-substrate GDP-Fuc; labelled compound
Substance,Km [1],kcat [1],kcat/Km [1],Km [2]
Helicobacter pylori α1–3/4-fucosyltransferase (Hp3/4FT) (Helicobacter pylori),860 ± 130 µM,6.02 ± 0.26 s⁻¹,7010 M⁻¹ s⁻¹,–
LacNAcβPro2AA,–,–,–,460 ± 70 µM
Galβ3GlcNAcβPro2AA,–,–,–,1320 ± 240 µM
LacβPro2AA,–,–,–,990 ± 180 µM
